Measurements from the supplement of paper PMC10065799, “High-throughput profiling of sequence recognition by tyrosine kinases and SH2 domains using bacterial peptide display” (eLife, 2023).

Tests used:
[1] = test system: AncSZ; experiment: phosphorylation enrichment, bacterial display (enrichment ratio); higher = better substrate or ligand; peptides without Tyr show the background
[2] = biological target: EPHB1 (UniProt P54762); experiment: as above
[3] = biological target: EPHB2 (UniProt P29323); experiment: as above
[4] = biological target: FGFR1 (UniProt P11362); experiment: as above
[5] = biological target: FGFR3 (UniProt P22607); experiment: as above
[6] = test system: Fer (mouse); experiment: as above
[7] = biological target: Fes (UniProt P07332); experiment: as above
[8] = biological target: Fyn (UniProt P06241); experiment: as above
[9] = biological target: Hck (UniProt P08631); experiment: as above
[10] = biological target: Jak2 (UniProt O60674); experiment: as above
[11] = biological target: MERTK (UniProt Q12866); experiment: as above
[12] = test system: c-Abl (mouse); experiment: as above
[13] = test system: c-Src; experiment: as above
[14] = biological target: Grb2 SH2 (UniProt P62993); experiment: SH2 binding enrichment of the phosphorylated peptide, bacterial display (enrichment ratio); higher = better substrate or ligand; peptides without Tyr show the background
[15] = biological target: SHP2-C SH2; experiment: as above
[16] = biological target: c-Src SH2; experiment: as above
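For SH2 binding enrichment of the phosphorylated peptide, bacterial display in this document: peptide library displayed on the E. coli surface as eCPX fusions, selected cells deep-sequenced, score is each peptide's frequency after selection divided by its frequency in the input.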
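For phosphorylation enrichment, bacterial display in this document: 11-residue human phosphosite peptides and single-mutation variants displayed on the E. coli surface, counted by deep sequencing, each peptide's frequency after selection divided by its frequency in the unselected input library; frequency after pTyr selection over input frequency; kinase dosed for 20-30% of maximal phosphorylation in three min.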

Chain of Grb2 SH2 (P62993 whole entry, looked up): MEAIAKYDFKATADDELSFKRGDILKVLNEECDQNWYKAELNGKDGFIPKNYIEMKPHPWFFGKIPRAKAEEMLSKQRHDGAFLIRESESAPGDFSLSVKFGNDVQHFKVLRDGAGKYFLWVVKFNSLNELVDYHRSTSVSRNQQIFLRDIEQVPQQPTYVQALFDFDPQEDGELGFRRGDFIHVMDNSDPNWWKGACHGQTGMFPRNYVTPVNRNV
Chain of FGFR1 (P11362 whole entry, looked up): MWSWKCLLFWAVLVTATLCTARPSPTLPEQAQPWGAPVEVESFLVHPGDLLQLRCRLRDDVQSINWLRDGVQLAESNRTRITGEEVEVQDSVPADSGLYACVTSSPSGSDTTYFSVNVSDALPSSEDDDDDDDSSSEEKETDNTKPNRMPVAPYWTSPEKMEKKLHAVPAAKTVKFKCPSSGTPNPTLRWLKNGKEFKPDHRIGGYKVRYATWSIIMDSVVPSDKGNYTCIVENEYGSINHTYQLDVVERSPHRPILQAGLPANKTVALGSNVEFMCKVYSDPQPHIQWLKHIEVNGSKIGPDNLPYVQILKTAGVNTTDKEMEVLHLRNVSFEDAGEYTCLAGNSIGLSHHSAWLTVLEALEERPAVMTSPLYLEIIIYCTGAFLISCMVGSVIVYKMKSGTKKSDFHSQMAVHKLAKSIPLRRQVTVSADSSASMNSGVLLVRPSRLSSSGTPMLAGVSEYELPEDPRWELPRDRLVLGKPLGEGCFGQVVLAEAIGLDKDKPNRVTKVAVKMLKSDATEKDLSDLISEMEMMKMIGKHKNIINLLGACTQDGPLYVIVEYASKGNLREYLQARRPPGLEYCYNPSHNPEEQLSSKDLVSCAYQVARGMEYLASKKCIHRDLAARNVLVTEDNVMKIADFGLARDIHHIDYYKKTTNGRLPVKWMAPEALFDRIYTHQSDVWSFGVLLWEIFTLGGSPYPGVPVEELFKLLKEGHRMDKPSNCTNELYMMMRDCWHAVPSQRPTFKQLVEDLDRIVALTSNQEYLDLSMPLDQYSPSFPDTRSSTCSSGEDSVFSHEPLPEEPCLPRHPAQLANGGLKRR
Chain of EPHB1 (P54762 whole entry, looked up): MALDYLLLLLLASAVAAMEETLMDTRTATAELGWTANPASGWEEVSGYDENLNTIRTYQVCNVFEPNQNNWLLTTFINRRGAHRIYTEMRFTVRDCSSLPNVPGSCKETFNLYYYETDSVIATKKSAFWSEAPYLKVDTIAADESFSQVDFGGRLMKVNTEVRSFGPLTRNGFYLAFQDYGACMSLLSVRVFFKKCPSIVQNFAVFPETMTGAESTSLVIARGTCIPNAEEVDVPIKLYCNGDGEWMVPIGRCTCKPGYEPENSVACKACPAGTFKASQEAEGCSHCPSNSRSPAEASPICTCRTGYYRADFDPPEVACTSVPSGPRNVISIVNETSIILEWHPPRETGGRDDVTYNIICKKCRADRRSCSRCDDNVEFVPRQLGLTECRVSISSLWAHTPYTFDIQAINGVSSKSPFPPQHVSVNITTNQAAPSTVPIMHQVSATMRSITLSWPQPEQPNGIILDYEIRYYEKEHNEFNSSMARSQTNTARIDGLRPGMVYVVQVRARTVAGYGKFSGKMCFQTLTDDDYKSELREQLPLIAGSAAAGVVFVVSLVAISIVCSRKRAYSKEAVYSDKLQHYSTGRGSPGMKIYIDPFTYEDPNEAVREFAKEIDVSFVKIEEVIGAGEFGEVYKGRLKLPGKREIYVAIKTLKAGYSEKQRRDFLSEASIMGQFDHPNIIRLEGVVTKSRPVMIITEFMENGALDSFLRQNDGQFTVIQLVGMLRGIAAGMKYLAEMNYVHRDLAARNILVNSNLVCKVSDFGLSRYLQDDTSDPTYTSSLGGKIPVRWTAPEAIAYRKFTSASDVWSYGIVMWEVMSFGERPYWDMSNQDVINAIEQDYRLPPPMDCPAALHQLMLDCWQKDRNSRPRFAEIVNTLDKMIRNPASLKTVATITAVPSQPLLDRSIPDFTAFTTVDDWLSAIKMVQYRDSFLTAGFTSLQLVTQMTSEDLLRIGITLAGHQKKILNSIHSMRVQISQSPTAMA
Chain of Hck (P08631 whole entry, looked up): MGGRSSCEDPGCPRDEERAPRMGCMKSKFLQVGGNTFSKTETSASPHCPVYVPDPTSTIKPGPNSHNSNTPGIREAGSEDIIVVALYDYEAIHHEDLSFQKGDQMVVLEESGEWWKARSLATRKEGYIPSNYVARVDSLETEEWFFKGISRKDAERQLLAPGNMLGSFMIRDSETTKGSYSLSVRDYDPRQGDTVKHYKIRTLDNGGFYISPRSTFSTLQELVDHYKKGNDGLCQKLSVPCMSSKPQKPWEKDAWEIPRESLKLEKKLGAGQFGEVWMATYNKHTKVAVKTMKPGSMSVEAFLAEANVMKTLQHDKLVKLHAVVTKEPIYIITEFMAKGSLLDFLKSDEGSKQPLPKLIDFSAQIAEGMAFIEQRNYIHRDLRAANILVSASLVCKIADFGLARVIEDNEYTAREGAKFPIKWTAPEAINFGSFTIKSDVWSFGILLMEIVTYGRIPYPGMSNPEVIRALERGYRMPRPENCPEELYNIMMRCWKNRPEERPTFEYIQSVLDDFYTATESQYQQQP
Chain of Jak2 (O60674 whole entry, looked up): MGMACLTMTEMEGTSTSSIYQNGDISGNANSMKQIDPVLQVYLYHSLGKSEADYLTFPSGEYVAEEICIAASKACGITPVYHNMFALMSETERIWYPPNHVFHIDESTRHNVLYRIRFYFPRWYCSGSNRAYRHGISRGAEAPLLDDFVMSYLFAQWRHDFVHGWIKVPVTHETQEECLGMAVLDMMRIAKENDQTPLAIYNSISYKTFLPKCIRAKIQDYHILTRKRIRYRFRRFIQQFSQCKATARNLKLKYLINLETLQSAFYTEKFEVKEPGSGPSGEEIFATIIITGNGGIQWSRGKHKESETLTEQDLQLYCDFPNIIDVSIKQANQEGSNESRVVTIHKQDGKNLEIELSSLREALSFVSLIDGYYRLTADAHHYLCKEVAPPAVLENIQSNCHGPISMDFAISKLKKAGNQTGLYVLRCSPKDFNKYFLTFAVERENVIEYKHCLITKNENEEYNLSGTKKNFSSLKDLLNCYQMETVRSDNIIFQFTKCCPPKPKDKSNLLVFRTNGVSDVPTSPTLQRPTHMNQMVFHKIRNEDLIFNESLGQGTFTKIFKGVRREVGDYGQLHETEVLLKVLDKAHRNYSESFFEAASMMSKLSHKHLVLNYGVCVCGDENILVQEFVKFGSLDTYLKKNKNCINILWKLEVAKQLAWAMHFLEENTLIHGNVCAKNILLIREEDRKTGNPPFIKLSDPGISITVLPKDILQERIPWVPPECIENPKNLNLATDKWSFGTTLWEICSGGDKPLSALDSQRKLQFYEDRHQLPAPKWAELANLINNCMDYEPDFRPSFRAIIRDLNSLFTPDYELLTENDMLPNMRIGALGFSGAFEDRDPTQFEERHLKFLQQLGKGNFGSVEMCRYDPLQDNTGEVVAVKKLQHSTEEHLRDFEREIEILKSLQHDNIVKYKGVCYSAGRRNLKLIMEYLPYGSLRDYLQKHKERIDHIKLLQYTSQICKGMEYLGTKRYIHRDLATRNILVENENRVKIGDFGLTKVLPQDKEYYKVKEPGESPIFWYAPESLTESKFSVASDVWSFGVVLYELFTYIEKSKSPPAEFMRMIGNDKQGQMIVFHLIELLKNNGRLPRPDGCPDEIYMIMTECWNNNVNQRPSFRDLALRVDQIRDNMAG
Chain of MERTK (Q12866 whole entry, looked up): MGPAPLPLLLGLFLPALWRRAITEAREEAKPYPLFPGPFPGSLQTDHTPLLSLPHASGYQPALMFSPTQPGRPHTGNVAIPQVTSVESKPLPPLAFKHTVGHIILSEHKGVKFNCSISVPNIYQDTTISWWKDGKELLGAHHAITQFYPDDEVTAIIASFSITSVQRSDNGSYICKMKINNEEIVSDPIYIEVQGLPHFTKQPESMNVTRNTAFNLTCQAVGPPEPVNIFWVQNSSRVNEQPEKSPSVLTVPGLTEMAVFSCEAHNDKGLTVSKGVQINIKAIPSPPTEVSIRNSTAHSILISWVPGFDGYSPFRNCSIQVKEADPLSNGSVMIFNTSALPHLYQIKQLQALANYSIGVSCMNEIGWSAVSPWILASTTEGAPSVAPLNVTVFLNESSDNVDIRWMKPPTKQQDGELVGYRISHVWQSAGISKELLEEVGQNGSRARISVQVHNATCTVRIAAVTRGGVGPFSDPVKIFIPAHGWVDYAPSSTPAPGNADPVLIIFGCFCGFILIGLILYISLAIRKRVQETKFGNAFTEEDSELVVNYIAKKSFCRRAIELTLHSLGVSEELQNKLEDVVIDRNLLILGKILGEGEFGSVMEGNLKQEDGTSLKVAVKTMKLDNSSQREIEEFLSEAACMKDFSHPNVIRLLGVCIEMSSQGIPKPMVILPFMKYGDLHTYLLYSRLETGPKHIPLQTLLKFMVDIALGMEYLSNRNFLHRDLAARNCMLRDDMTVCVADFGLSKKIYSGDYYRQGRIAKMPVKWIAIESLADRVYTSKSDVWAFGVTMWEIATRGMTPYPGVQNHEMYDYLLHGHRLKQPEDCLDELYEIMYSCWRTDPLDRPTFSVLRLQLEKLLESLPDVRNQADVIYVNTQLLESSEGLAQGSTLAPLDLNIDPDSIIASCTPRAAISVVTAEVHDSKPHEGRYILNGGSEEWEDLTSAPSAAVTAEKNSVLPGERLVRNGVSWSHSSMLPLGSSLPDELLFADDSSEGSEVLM

Row | Sequence | phosphorylation enrichment [1] | phosphorylation enrichment [2] | phosphorylation enrichment [3] | phosphorylation enrichment [4] | phosphorylation enrichment [5] | phosphorylation enrichment [6] | phosphorylation enrichment [7] | phosphorylation enrichment [8] | phosphorylation enrichment [9] | phosphorylation enrichment [10] | phosphorylation enrichment [11] | phosphorylation enrichment [12] | phosphorylation enrichment [13] | SH2 binding enrichment [14] | SH2 binding enrichment [15] | SH2 binding enrichment [16]
1 | GENTVYAQVFN [LY9_Y603_M602V] | 0.819 | 1.53 | 1.23 | 0.599 | 0.616 | 7 | 0.918 | 6.74 | 6.46 | 0.718 | 2.21 | 2.92 | 5.05 | 0.829 | 7.82 | 1.03
2 | GFQPEYGQPAG [SYP_Y278_D277E_YF] | 0.685 | 0.501 | 0.542 | 0.479 | 0.917 | 0.506 | 0.741 | 0.592 | 0.4 | 0.723 | 0.424 | 0.586 | 0.671 | 0.788 | 0.832 | 0.405
3 | GFRPVYSEDEQ [CHST6_Y362_YF] | 1.35 | 0.754 | 0.699 | 0.584 | 0.835 | 0.617 | 1.49 | 0.592 | 0.615 | 1.47 | 0.559 | 1.27 | 0.836 | 0.904 | 0.73 | 0.645
4 | GFRVFYTPDSR [PTPRF_Y451_YF] | 0.962 | 0.562 | 0.448 | 0.52 | 0.64 | 0.462 | 1.19 | 0.468 | 0.564 | 1.03 | 0.37 | 0.612 | 0.449 | 1.17 | 0.861 | 0.598
5 | GGFTCYCDGKK [PROS1_Y266_YF] | 1.12 | 0.608 | 0.515 | 0.457 | 0.865 | 0.511 | 1.19 | 0.485 | 0.484 | 0.998 | 0.419 | 0.758 | 0.354 | 0.779 | 0.591 | 0.409
6 | GGGGSYNDFGN [HNRNPA1_Y312] | 0.599 | 0.433 | 0.39 | 0.471 | 0.5 | 0.33 | 0.791 | 1.17 | 0.474 | 0.579 | 0.422 | 0.458 | 0.441 | 0.745 | 0.659 | 0.513
7 | GGMAEYTRLHN [EHHADH_Y4] | 0.609 | 0.494 | 0.374 | 0.382 | 0.442 | 0.359 | 0.597 | 0.32 | 0.451 | 0.691 | 0.378 | 0.532 | 0.421 | 0.864 | 0.742 | 1.29
8 | GGQEDYDRLRP [RAC3_Y64_A59G] | 1.17 | 0.566 | 0.691 | 0.528 | 0.624 | 0.522 | 0.948 | 0.458 | 0.759 | 0.861 | 0.461 | 0.616 | 0.494 | 0.821 | 0.767 | 0.591
9 | GIATGYLVLKE [DNMT3B_Y588] | 0.737 | 0.511 | 0.558 | 0.464 | 0.611 | 0.376 | 0.77 | 0.385 | 0.511 | 0.836 | 0.357 | 0.533 | 0.4 | 0.744 | 2.28 | 0.717
10 | GIFEDYVEGLR [MYL6_Y89_T85I_YF] | 1.25 | 0.787 | 0.7 | 0.567 | 0.793 | 0.607 | 1.17 | 0.7 | 0.484 | 1.22 | 0.393 | 0.857 | 0.536 | 0.866 | 0.645 | 0.462
11 | GKTQQYECKWY [BCR_Y751_D752E] | 0.936 | 0.507 | 0.6 | 0.499 | 0.642 | 0.549 | 1.05 | 0.443 | 0.447 | 0.97 | 0.487 | 0.681 | 0.522 | 0.677 | 0.584 | 0.735
12 | GLAELYEFQKK [CKAP5_Y1854_K1857Q_YF] | 0.973 | 0.59 | 0.564 | 0.539 | 0.94 | 0.656 | 0.857 | 0.64 | 1.23 | 0.58 | 0.526 | 0.428 | 0.937 | 0.666 | 0.473 | 0.795
13 | GLAKGYIDPET [CSNK1G2_Y195_E194G] | 1.04 | 0.509 | 0.588 | 0.476 | 0.48 | 0.482 | 0.795 | 0.558 | 0.513 | 0.694 | 0.472 | 0.454 | 0.554 | 0.823 | 0.922 | 0.5
14 | GLRYGYGGLGG [KRTAP20-2_Y15_V17G] | 0.507 | 0.349 | 0.31 | 0.339 | 0.412 | 0.334 | 0.564 | 0.349 | 0.329 | 0.44 | 0.349 | 0.431 | 0.398 | 0.826 | 0.557 | 0.568
15 | GLTSTYAGIRK [ROBO1_Y932] | 0.525 | 0.303 | 0.492 | 0.342 | 0.372 | 0.521 | 0.66 | 1.46 | 6.69 | 0.548 | 0.497 | 0.724 | 1.52 | 0.895 | 14.7 | 1.28
16 | GMRHGHGVRQS [JPH2_Y141_Y141H] | 0.646 | 0.775 | 0.45 | 0.471 | 0.696 | 0.529 | 0.803 | 0.419 | 0.495 | 0.975 | 0.462 | 1.28 | 0.529 | 1.27 | 1.31 | 1
17 | GMTLSYLFREL [NDUFS8_Y74_P79L] | 0.888 | 0.514 | 0.55 | 0.53 | 0.604 | 0.431 | 0.905 | 0.451 | 0.487 | 0.758 | 0.447 | 0.603 | 0.383 | 1.64 | 1.47 | 1.24

Row | Sequence | phosphorylation enrichment [1] | phosphorylation enrichment [2] | phosphorylation enrichment [3] | phosphorylation enrichment [4] | phosphorylation enrichment [5] | phosphorylation enrichment [6] | phosphorylation enrichment [7] | phosphorylation enrichment [8] | phosphorylation enrichment [9] | phosphorylation enrichment [10] | phosphorylation enrichment [11] | phosphorylation enrichment [12] | phosphorylation enrichment [13] | SH2 binding enrichment [14] | SH2 binding enrichment [15] | SH2 binding enrichment [16]
18 | GMTRNYIIFIE [BCO2_Y294] | 0.96 | 0.649 | 0.67 | 0.599 | 0.745 | 0.447 | 0.921 | 0.567 | 0.563 | 0.885 | 0.487 | 0.49 | 0.498 | 1.34 | 1.32 | 1.18
19 | GPIEVYLCPEE [E2F3_Y349] | 1.18 | 0.696 | 0.533 | 0.462 | 0.743 | 0.458 | 1.08 | 0.525 | 0.549 | 1.29 | 0.437 | 0.724 | 0.683 | 0.817 | 0.754 | 0.541
20 | GPRSLYNGLVA [UCP2_Y79] | 0.488 | 0.385 | 0.36 | 0.396 | 0.486 | 0.386 | 0.543 | 0.427 | 1.45 | 0.502 | 0.381 | 0.555 | 0.509 | 0.776 | 0.661 | 0.621
21 | GPSTPYTKSKC [SMARCC2_Y324_R329C] | 0.584 | 0.35 | 0.408 | 0.362 | 0.479 | 0.393 | 0.534 | 0.403 | 0.395 | 0.573 | 0.396 | 0.55 | 0.36 | 1.24 | 1.06 | 0.76
22 | GRDQPYSGAGD [TYRO3_Y828] | 0.442 | 0.293 | 0.457 | 0.559 | 0.357 | 0.31 | 0.765 | 0.623 | 0.445 | 0.508 | 0.383 | 0.359 | 0.356 | 0.894 | 0.86 | 0.567
23 | GRFSGYKSKHG [EPHA3_Y570_C568S] | 0.39 | 0.34 | 0.256 | 0.312 | 0.392 | 0.278 | 0.438 | 0.407 | 0.361 | 0.438 | 0.397 | 0.65 | 0.364 | 0.857 | 0.631 | 0.92
24 | GRTNIYNNKKD [SLC26A3_Y520_K521N] | 0.418 | 0.311 | 0.339 | 0.324 | 0.349 | 0.326 | 0.632 | 0.347 | 0.365 | 0.691 | 0.301 | 0.433 | 0.435 | 1.04 | 0.754 | 0.634
25 | GRVYVYHLSEQ [ITGAE_Y551_R552H] | 1.03 | 0.645 | 0.548 | 0.559 | 0.712 | 0.531 | 1.13 | 0.835 | 0.602 | 0.994 | 0.386 | 0.646 | 0.799 | 1.01 | 6.94 | 0.907
26 | GTCGGYCSVLG [RAB18_Y202_A198T] | 0.532 | 0.344 | 0.353 | 0.37 | 0.488 | 0.389 | 0.488 | 0.397 | 0.388 | 0.451 | 0.527 | 0.401 | 0.42 | 0.842 | 2.08 | 8.16
27 | GVIRHSVVCST [BTK_Y334_Y334S] | 0.783 | 0.508 | 0.456 | 0.453 | 0.51 | 0.477 | 0.82 | 0.42 | 0.436 | 0.67 | 0.446 | 0.607 | 0.45 | 0.996 | 0.637 | 0.586
28 | GVKLTYGDAQS [SLC28A1_Y404_N409S] | 0.599 | 0.472 | 0.34 | 0.429 | 0.453 | 0.373 | 0.646 | 0.426 | 0.456 | 0.46 | 0.335 | 0.52 | 0.349 | 0.798 | 0.646 | 0.467
29 | GVRYIYTIDGS [DCX_Y105] | 1.09 | 0.6 | 0.552 | 0.487 | 0.743 | 0.415 | 1.31 | 1.76 | 0.783 | 0.937 | 0.405 | 0.687 | 1.86 | 0.943 | 17.4 | 0.67
30 | GYGGGYGGVLT [KRT19_Y65_A60G] | 0.556 | 0.359 | 0.47 | 0.468 | 0.511 | 0.419 | 0.641 | 0.42 | 0.665 | 0.575 | 0.391 | 0.468 | 0.453 | 0.742 | 0.791 | 0.448
31 | GYKVRYATWSI [FGFR1_Y210] | 1.06 | 0.573 | 0.425 | 0.519 | 0.669 | 0.456 | 1.18 | 0.54 | 0.593 | 1.08 | 0.657 | 0.969 | 0.582 | 1.39 | 2.01 | 1.28
32 | GYRVYYTPDSR [PTPRF_Y451] | 0.794 | 2.35 | 2.15 | 0.73 | 0.675 | 0.477 | 0.768 | 1.24 | 2.69 | 2.29 | 5.3 | 1.89 | 1.54 | 0.955 | 0.977 | 2.77
33 | HCHEGYVLHGA [SVEP1_Y2921_I2922V] | 1.28 | 0.915 | 0.807 | 1.11 | 1.13 | 0.911 | 1.3 | 0.789 | 0.786 | 0.943 | 0.474 | 0.78 | 0.527 | 0.957 | 1.36 | 0.826
